Results on 125 sequences are retold here after the supplement of paper PMC9112550, “Optimization of the antimicrobial peptide Bac7 by deep mutational scanning” (BMC Biology, 2022).

For this series, the system named is Escherichia coli TOP10. As to the kind of experiment: shrunken log2 fold change of peptide-encoding DNA abundance (4.5 h post-induction vs induction); higher = less antimicrobial activity (less host growth inhibition). As to conditions: time post-induction: 4.5 h; library: site-saturation at positions 5, 18, 19, 20.
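Further: peptides expressed intracellularly from a pBAD plasmid library in pooled LB shake-flask culture, induced with 0.3% L-arabinose, DNA abundance read by NGS, three biological replicates, DESeq2 with apeglm shrinkage.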

As for RRIRHRPPRLPRPRPRPMSWPRP, the “shrunken log2 fold change” value is -0.106.
Consider RRIRCRPPRLPRPRPRPDCMPRP, for which the “shrunken log2 fold change” value turned out to be 0.0384.
The value for RRIRPRPPRLPRPRPRPGRVPRP was 0.318; that for RRIRRRPPRLPRPRPRPPIGPRP was -0.149.
The value for RRIRRRPPRLPRPRPRPDIRPRP was -0.294.
As to RRIRKRPPRLPRPRPRPEGDPRP, the “shrunken log2 fold change” value stood at 1.24.
Consider RRIRWRPPRLPRPRPRPCKLPRP, for which the “shrunken log2 fold change” value was -0.694.
Consider RRIRNRPPRLPRPRPRPHMKPRP, for which the “shrunken log2 fold change” value was -0.243.
As to RRIRYRPPRLPRPRPRPCADPRP, the “shrunken log2 fold change” value was -0.21.
For the sequence RRIRNRPPRLPRPRPRPMIRPRP, the “shrunken log2 fold change” value is -0.0231.
The value for RRIRSRPPRLPRPRPRPPNQPRP was 0.134; that for RRIRERPPRLPRPRPRPYKVPRP was -0.0366.
The result for RRIRRRPPRLPRPRPRPICPPRP reads -0.0986.
The result for RRIRHRPPRLPRPRPRPEMKPRP reads -0.0143.
With RRIRVRPPRLPRPRPRPFSFPRP, the “shrunken log2 fold change” value came out at 1.26.
For the sequence RRIRMRPPRLPRPRPRPFHHPRP, the “shrunken log2 fold change” value was -0.419.
Consider RRIRKRPPRLPRPRPRPTQAPRP, for which the “shrunken log2 fold change” value is -0.00908.
Take RRIRSRPPRLPRPRPRPLVPPRP: the “shrunken log2 fold change” value is -0.0319.
For RRIRRRPPRLPRPRPRPFHGPRP, the “shrunken log2 fold change” value is -0.17.
Consider RRIRQRPPRLPRPRPRPEPSPRP, for which the “shrunken log2 fold change” value was 0.102.
Turning to RRIRHRPPRLPRPRPRPSMLPRP, the “shrunken log2 fold change” value was -0.539.
Consider RRIRMRPPRLPRPRPRPHANPRP, for which the “shrunken log2 fold change” value came to 0.0143.
The result for RRIRMRPPRLPRPRPRPRWGPRP reads 0.279.
As to RRIRCRPPRLPRPRPRPRKCPRP, the “shrunken log2 fold change” value is 0.0179.
Take RRIRFRPPRLPRPRPRPVSFPRP: the “shrunken log2 fold change” value is -0.414.
On to RRIRNRPPRLPRPRPRPQGPPRP, for which the “shrunken log2 fold change” value is 0.0355.
For the sequence RRIRRRPPRLPRPRPRPPECPRP, the “shrunken log2 fold change” value was found to be 0.222.
Consider RRIRRRPPRLPRPRPRPREPPRP, for which the “shrunken log2 fold change” value is 1.04.
Regarding RRIRERPPRLPRPRPRPCKVPRP, the “shrunken log2 fold change” value is -0.00382.
Regarding RRIRTRPPRLPRPRPRPYWKPRP, the “shrunken log2 fold change” value was -0.000823.
For the sequence RRIRNRPPRLPRPRPRPCSLPRP, the “shrunken log2 fold change” value was -0.262.
As to RRIRSRPPRLPRPRPRPCSCPRP, the “shrunken log2 fold change” value was determined as 0.000754.
Turning to RRIRRRPPRLPRPRPRPTMEPRP, the “shrunken log2 fold change” value was -0.0829.
As for RRIRMRPPRLPRPRPRPPVVPRP, the “shrunken log2 fold change” value is 0.753.
As for RRIRARPPRLPRPRPRPYMNPRP, the “shrunken log2 fold change” value is -0.337.
With RRIRMRPPRLPRPRPRPMKVPRP, the “shrunken log2 fold change” value stood at 0.0398.
In the case of RRIRSRPPRLPRPRPRPYYRPRP, the “shrunken log2 fold change” value is -0.0115.
RRIRWRPPRLPRPRPRPNKNPRP: the “shrunken log2 fold change” value was -0.0787.
In the case of RRIRKRPPRLPRPRPRPCCTPRP, the “shrunken log2 fold change” value was -0.0454.
Turning to RRIRDRPPRLPRPRPRPCFWPRP, the “shrunken log2 fold change” value stood at 0.612.
As to RRIRNRPPRLPRPRPRPSDPPRP, the “shrunken log2 fold change” value was -0.192.
Regarding RRIRFRPPRLPRPRPRPKWSPRP, the “shrunken log2 fold change” value turned out to be 0.321.
Regarding RRIRLRPPRLPRPRPRPGSPPRP, the “shrunken log2 fold change” value stood at 0.475.
In the case of RRIRYRPPRLPRPRPRPQLDPRP, the “shrunken log2 fold change” value is -0.555.
With RRIRWRPPRLPRPRPRPDATPRP, the “shrunken log2 fold change” value worked out at 2.57.
As to RRIRCRPPRLPRPRPRPAETPRP, the “shrunken log2 fold change” value is -0.035.
For the sequence RRIRNRPPRLPRPRPRPGDKPRP, the “shrunken log2 fold change” value was -0.105.
For the sequence RRIRGRPPRLPRPRPRPDGRPRP, the “shrunken log2 fold change” value turned out to be 0.169.
For RRIRIRPPRLPRPRPRPKSIPRP, the “shrunken log2 fold change” value is -0.14.
The result for RRIRERPPRLPRPRPRPGGRPRP reads 0.27; that for RRIRPRPPRLPRPRPRPNNHPRP, -0.607; that for RRIRARPPRLPRPRPRPYWTPRP, -0.16.
On to RRIRKRPPRLPRPRPRPQWPPRP, for which the “shrunken log2 fold change” value turned out to be 0.124.
Turning to RRIRLRPPRLPRPRPRPDRAPRP, the “shrunken log2 fold change” value stood at 0.0122.
RRIRWRPPRLPRPRPRPNHMPRP: the “shrunken log2 fold change” value is -0.227.
RRIRKRPPRLPRPRPRPTCVPRP: the “shrunken log2 fold change” value worked out at 0.241.
For the sequence RRIRSRPPRLPRPRPRPASYPRP, the “shrunken log2 fold change” value was 0.102.
Consider RRIRTRPPRLPRPRPRPGGCPRP, for which the “shrunken log2 fold change” value turned out to be 0.26.
In the case of RRIRFRPPRLPRPRPRPVRVPRP, the “shrunken log2 fold change” value was found to be 0.349.
Regarding RRIRRRPPRLPRPRPRPQTTPRP, the “shrunken log2 fold change” value was determined as 0.137.
The value for RRIRGRPPRLPRPRPRPWVQPRP was 0.0601; that for RRIRFRPPRLPRPRPRPETDPRP was 0.114.
The result for RRIRGRPPRLPRPRPRPEASPRP reads 0.708; that for RRIRHRPPRLPRPRPRPPDYPRP, 4.26.
As for RRIRWRPPRLPRPRPRPIYIPRP, the “shrunken log2 fold change” value was -0.889.
As to RRIRNRPPRLPRPRPRPQEGPRP, the “shrunken log2 fold change” value was 0.0303.
For RRIRDRPPRLPRPRPRPWARPRP, the “shrunken log2 fold change” value was -0.0626.
Consider RRIRSRPPRLPRPRPRPVEIPRP, for which the “shrunken log2 fold change” value is -0.0626.
Take RRIRLRPPRLPRPRPRPDVEPRP: the “shrunken log2 fold change” value was -0.0825.
RRIRHRPPRLPRPRPRPHGMPRP: the “shrunken log2 fold change” value was -0.000911.
The value for RRIRIRPPRLPRPRPRPYHQPRP was 0.0196; that for RRIRDRPPRLPRPRPRPGQMPRP was -0.0138.
Take RRIRQRPPRLPRPRPRPGNNPRP: the “shrunken log2 fold change” value is -0.54.
For the sequence RRIRCRPPRLPRPRPRPQMAPRP, the “shrunken log2 fold change” value is -0.117.
With RRIRHRPPRLPRPRPRPIQPPRP, the “shrunken log2 fold change” value is 0.0532.
As to RRIRFRPPRLPRPRPRPPNRPRP, the “shrunken log2 fold change” value came out at 0.266.
Regarding RRIRFRPPRLPRPRPRPANWPRP, the “shrunken log2 fold change” value came to 0.166.
Take RRIRWRPPRLPRPRPRPDDVPRP: the “shrunken log2 fold change” value was determined as 0.0399.
Take RRIRQRPPRLPRPRPRPTRLPRP: the “shrunken log2 fold change” value was 0.723.
Consider RRIRSRPPRLPRPRPRPFLYPRP, for which the “shrunken log2 fold change” value is -0.442.
Regarding RRIRCRPPRLPRPRPRPGPEPRP, the “shrunken log2 fold change” value is 0.473.
The value for RRIRIRPPRLPRPRPRPWHRPRP was 0.0544.
As to RRIRPRPPRLPRPRPRPQYMPRP, the “shrunken log2 fold change” value was -0.506.
The value for RRIRCRPPRLPRPRPRPCERPRP was -0.0644; that for RRIRLRPPRLPRPRPRPNSSPRP was -0.11; that for RRIRQRPPRLPRPRPRPTCPPRP was -0.0183.
As to RRIRKRPPRLPRPRPRPPETPRP, the “shrunken log2 fold change” value turned out to be 0.651.
Consider RRIRPRPPRLPRPRPRPLENPRP, for which the “shrunken log2 fold change” value is -0.00388.
The result for RRIRNRPPRLPRPRPRPLGMPRP reads -0.109.
For the sequence RRIRYRPPRLPRPRPRPKYHPRP, the “shrunken log2 fold change” value was -2.19.
As for RRIRTRPPRLPRPRPRPHLIPRP, the “shrunken log2 fold change” value is 2.85.
Regarding RRIRRRPPRLPRPRPRPAFGPRP, the “shrunken log2 fold change” value stood at 0.348.
The result for RRIRGRPPRLPRPRPRPGIFPRP reads 0.254; that for RRIRHRPPRLPRPRPRPYDIPRP, -0.387; that for RRIRYRPPRLPRPRPRPIIIPRP, -0.161.
The result for RRIRVRPPRLPRPRPRPCGAPRP reads 0.279; that for RRIRVRPPRLPRPRPRPEHSPRP, 0.115.
Turning to RRIRFRPPRLPRPRPRPHNEPRP, the “shrunken log2 fold change” value was -0.626.
With RRIRYRPPRLPRPRPRPNKNPRP, the “shrunken log2 fold change” value was -0.935.
Regarding RRIRCRPPRLPRPRPRPPCIPRP, the “shrunken log2 fold change” value came to 0.0428.
On to RRIRYRPPRLPRPRPRPCHNPRP, for which the “shrunken log2 fold change” value is -1.52.
Consider RRIRIRPPRLPRPRPRPEHQPRP, for which the “shrunken log2 fold change” value was -0.0287.
Regarding RRIRARPPRLPRPRPRPHSLPRP, the “shrunken log2 fold change” value stood at 0.314.
With RRIRPRPPRLPRPRPRPVHLPRP, the “shrunken log2 fold change” value was 0.179.
For RRIRNRPPRLPRPRPRPKPLPRP, the “shrunken log2 fold change” value is -0.102.
RRIRLRPPRLPRPRPRPDMNPRP: the “shrunken log2 fold change” value was -0.155.
The value for RRIRGRPPRLPRPRPRPHHHPRP was -0.139; that for RRIRPRPPRLPRPRPRPPWSPRP was 0.00901.
For RRIRDRPPRLPRPRPRPGNIPRP, the “shrunken log2 fold change” value is -0.0319.
The value for RRIRARPPRLPRPRPRPGGFPRP was 0.518; that for RRIRPRPPRLPRPRPRPIFWPRP was 1.25.
As to RRIRLRPPRLPRPRPRPKRDPRP, the “shrunken log2 fold change” value was found to be 0.43.
Take RRIRNRPPRLPRPRPRPRFQPRP: the “shrunken log2 fold change” value was found to be 0.0932.
On to RRIRHRPPRLPRPRPRPKNKPRP, for which the “shrunken log2 fold change” value is -0.521.
Regarding RRIRFRPPRLPRPRPRPIMQPRP, the “shrunken log2 fold change” value was -0.497.
Consider RRIRWRPPRLPRPRPRPARCPRP, for which the “shrunken log2 fold change” value was found to be 0.209.
Turning to RRIRHRPPRLPRPRPRPGVDPRP, the “shrunken log2 fold change” value was -0.213.
RRIRVRPPRLPRPRPRPDDNPRP: the “shrunken log2 fold change” value is -0.0966.
Take RRIRKRPPRLPRPRPRPCEMPRP: the “shrunken log2 fold change” value came to 0.0303.
The result for RRIRQRPPRLPRPRPRPVAKPRP reads 0.2.
With RRIRARPPRLPRPRPRPVCAPRP, the “shrunken log2 fold change” value was 0.571.
On to RRIRVRPPRLPRPRPRPPVGPRP, for which the “shrunken log2 fold change” value is 0.375.
RRIRWRPPRLPRPRPRPLPEPRP: the “shrunken log2 fold change” value was 0.265.
As to RRIRQRPPRLPRPRPRPFQIPRP, the “shrunken log2 fold change” value is 0.0399.
As to RRIRCRPPRLPRPRPRPDLPPRP, the “shrunken log2 fold change” value was -0.265.
